According to patent US11352401:

The binders below were run against T1, HLA-A*01 (human) (assay: UV peptide-exchange ELISA; +++ = yield >50%).
T1 construct: MHC monomer made peptide-receptive by UV cleavage of a UV-sensitive ligand; also called peptide-receptive MHC class I monomer
Description: Candidate peptides for T cell based therapies according to the present invention were further tested for their MHC binding capacity (affinity). The individual peptide-MHC complexes were produced by UV-ligand exchange, where a UV-sensitive peptide is cleaved upon UV-irradiation, and exchanged with the peptide of interest as analyzed. Only peptide candidates that can effectively bind and stabilize the peptide-receptive MHC molecules prevent dissociation of the MHC complexes. To determine the yield of the exchange reaction, an ELISA was performed based on the detection of the light chain (β2m) of stabilized MHC complexes. The assay was performed as generally described in Rodenko et al. (Rodenko et al., 2006).
96 well MAXISorp plates (NUNC) were coated over night with 2 ug/ml streptavidin in PBS at room temperature, washed 4× and blocked for 1 h at 37° C. in 2% BSA containing blocking buffer. […] Peptide-MHC monomers of the UV-exchange reaction were diluted 100-fold in blocking buffer. Samples were incubated for 1 h at 37° C., washed four times, incubated with 2 ug/ml HRP conjugated anti-β2m for 1h at 37° C., washed again and detected with TMB solution that is stopped with […]. Absorption was measured at 450 nm.

peptide exchange yield [%] | Binder
50 to 75 | YADTVRPEFY [YADTVRPEFY (SEQ ID NO: 197)]
50 to 75 | TLDAGKFQIY [TLDAGKFQIY (SEQ ID NO: 439)]
50 to 75 | VSDAKLDKY [VSDAKLDKY (SEQ ID NO: 188)]
50 to 75 | TLDENPGVRY [TLDENPGVRY (SEQ ID NO: 440)]
50 to 75 | NTQITDIGRY [NTQITDIGRY (SEQ ID NO: 166)]
50 to 75 | YLDIPNPRY [YLDIPNPRY (SEQ ID NO: 448)]
50 to 75 | SRTINVSNLY [SRTINVSNLY (SEQ ID NO: 176)]
50 to 75 | VADLHLYLY [VADLHLYLY (SEQ ID NO: 187)]
50 to 75 | NSDSSLTLREFY [NSDSSLTLREFY (SEQ ID NO: 163)]
50 to 75 | VTDGINPLIDRY [VTDGINPLIDRY (SEQ ID NO: 190)]
50 to 75 | NTDPTAPPY [NTDPTAPPY (SEQ ID NO: 165)]
50 to 75 | NVDPVQHTY [NVDPVQHTY (SEQ ID NO: 432)]
50 to 75 | TSAHPEDSSFY [TSAHPEDSSFY (SEQ ID NO: 184)]
50 to 75 | NLDQATRVAY [NLDQATRVAY (SEQ ID NO: 426)]
50 to 75 | VVDEDHELIY [VVDEDHELIY (SEQ ID NO: 447)]
50 to 75 | TTDTVIRSY [TTDTVIRSY (SEQ ID NO: 444)]
50 to 75 | TTDIIEKY [TTDIIEKY (SEQ ID NO: 186)]
50 to 75 | VLDQGKITEY [VLDQGKITEY (SEQ ID NO: 445)]
50 to 75 | RTDSCSSAQAQY [RTDSCSSAQAQY (SEQ ID NO: 172)]
50 to 75 | VVDSVGGYLY [VVDSVGGYLY (SEQ ID NO: 195)]
50 to 75 | TADGKTYYY [TADGKTYYY (SEQ ID NO: 181)]
50 to 75 | VTDGSLYEGVAY [VTDGSLYEGVAY (SEQ ID NO: 191)]
50 to 75 | QSDPGTSVLGY [QSDPGTSVLGY (SEQ ID NO: 167)]
50 to 75 | TDYHVRVY [TDYHVRVY (SEQ ID NO: 182)]
50 to 75 | STDNFNCKY [STDNFNCKY (SEQ ID NO: 438)]

The next lines start with the binder.

Binder | peptide exchange yield [%]
FLDSQNLSAY [FLDSQNLSAY (SEQ ID NO: 144)] | 50 to 75
FIDYPKKEDY [FIDYPKKEDY (SEQ ID NO: 143)] | 50 to 75
LTEAVLNRY [LTEAVLNRY (SEQ ID NO: 160)] | 50 to 75
ELDSKVEVLTY [ELDSKVEVLTY (SEQ ID NO: 403)] | 50 to 75
LLDSLREQY [LLDSLREQY (SEQ ID NO: 156)] | 50 to 75
KLDRSVFTAY [KLDRSVFTAY (SEQ ID NO: 153)] | 50 to 75
FVDKPVAY [FVDKPVAY (SEQ ID NO: 145)] | 50 to 75
HTDSLHLLI [HTDSLHLLI (SEQ ID NO: 152)] | 50 to 75
DTDSQRLAY [DTDSQRLAY (SEQ ID NO: 402)] | 50 to 75
LVDDGTHGQY [LVDDGTHGQY (SEQ ID NO: 161)] | 50 to 75
ASEQQALHTVQY [ASEQQALHTVQY (SEQ ID NO: 398)] | 50 to 75
NLDEEKQLLY [NLDEEKQLLY (SEQ ID NO: 424)] | 50 to 75
ECDMAFHIY [ECDMAFHIY (SEQ ID NO: 139)] | 50 to 75
LVDNSIRELQY [LVDNSIRELQY (SEQ ID NO: 162)] | 50 to 75
ATDISRQNEY [ATDISRQNEY (SEQ ID NO: 400)] | 50 to 75
EVAEPSVLFDLY [EVAEPSVLFDLY (SEQ ID NO: 142)] | 50 to 75
ESDVGVVVY [ESDVGVVVY (SEQ ID NO: 141)] | 50 to 75
LSDPSGPKSY [LSDPSGPKSY (SEQ ID NO: 418)] | 50 to 75
ESDREELNY [ESDREELNY (SEQ ID NO: 140)] | 50 to 75
LLDISQKNLY [LLDISQKNLY (SEQ ID NO: 154)] | 50 to 75
HSDLKVGEY [HSDLKVGEY (SEQ ID NO: 151)] | 50 to 75

Each binder was assayed against T2, HLA-A*02 (human) (assay: UV peptide-exchange ELISA; ++++ = yield >75%).
T2 construct: MHC monomer made peptide-receptive by UV cleavage of a UV-sensitive ligand; also called peptide-receptive MHC class I monomer

peptide exchange yield [%] | Binder
> 75 | VQMVITEAQKV [VQMVITEAQKV (SEQ ID NO: 88)]
> 75 | TLYPYQISQL [TLYPYQISQL (SEQ ID NO: 87)]
> 75 | YIDEFQSLV [YIDEFQSLV (SEQ ID NO: 85)]
> 75 | TLQEKILQV [TLQEKILQV (SEQ ID NO: 93)]
> 75 | YVDINTFRL [YVDINTFRL (SEQ ID NO: 84)]
> 75 | VLPDIETLIGV [VLPDIETLIGV (SEQ ID NO: 94)]

Continued, binder first:

Binder | peptide exchange yield [%]
FVIDGFDEL [FVIDGFDEL (SEQ ID NO: 86)] | > 75
ILSTTMVTV [ILSTTMVTV (SEQ ID NO: 89)] | > 75
